According to patent US11230581B2, “Peptides and combination of peptides for use in immunotherapy against ovarian cancer and other cancers” (Immatics Biotechnologies GmbH, priority 2015, dated 2022):

Target: HLA-A*02:01 (Homo sapiens, UniProt P04439, D140Y/D185E/D98H/E176V/E277Q/G131W/G231S/I119V/I121R/I166T/I218V/L300P/L318F/N151K/N90K/P208A/P217A/Q86G/Q94H/R138H/R169H/T345S)
Test: MHC binding assay (UV-ligand exchange, β2m ELISA, peptide exchange yield)
Conditions: binding of HLA-class I restricted peptides to HLA-A*02:01, UV-ligand exchange
Excerpt: Candidate peptides for T cell based therapies according to the present invention were further tested for their MHC binding capacity (affinity). The individual peptide-MHC complexes were produced by UV-ligand exchange, where a UV-sensitive peptide is cleaved upon UV-irradiation, and exchanged with the peptide of interest as analyzed. Only peptide candidates that can effectively bind and stabilize the peptide-receptive MHC molecules prevent dissociation of the MHC complexes. To determine the yield of the exchange reaction, an ELISA was performed based on the detection of the light chain (β2m) of stabilized MHC complexes. The assay was performed as generally described in Rodenko et al. (Rodenko et al., 2006).
96 well MAXISorp plates (NUNC) were coated over night with 2 ug/ml streptavidin in PBS at room temperature, washed 4× and blocked for 1h at 37° C. in 2% BSA containing blocking buffer. […] Peptide-MHC monomers of the UV-exchange reaction were diluted 100 fold in blocking buffer. Samples were incubated for 1 h at 37° C., washed four times, incubated with 2 ug/ml HRP conjugated anti-β2m for 1h at 37° C., washed again and detected with TMB solution that is stopped with […]. Absorption was measured at 450 nm. Candidate peptides that show a high exchange yield (preferably higher than 50%, most preferred higher than 75%) are generally preferred for a generation and production of antibodies or fragments thereof, and/or T cell receptors or fragments thereof, as they show sufficient avidity to the MHC molecules and prevent dissociation of the MHC complexes.

| Substance | Peptide exchange (MHC class I binding score, peptide exchange yield) |
| --- | --- |
| 1 (SLMEPPAVLLL; listed as Homo sapiens) [compound 1] | “+++” (≥50 = +++) |
| 3 (SLASKLTTL; listed as Homo sapiens) [compound 3] | “++++” (≥75% = ++++) |
| 4 (GIMEHITKI; listed as Homo sapiens) [compound 4] | “++++” (≥75% = ++++) |
| 8 (FTLGNVVGMYL; listed as Homo sapiens) [compound 8] | “++++” (≥75% = ++++) |
| 9 (GAAKDLPGV; listed as Homo sapiens) [compound 9] | “++” (≥20% = ++) |
| 12 (SLWPDPMEV; listed as Homo sapiens) [compound 12] | “+++” (≥50 = +++) |
| 14 (AAYGGLNEKSFV; listed as Homo sapiens) [compound 14] | “+++” (≥50 = +++) |
| 15 (VLLTFKIFL; listed as Homo sapiens) [compound 15] | “++” (≥20% = ++) |
| 16 (VLFQGQASL; listed as Homo sapiens) [compound 16] | “+++” (≥50 = +++) |
| 18 (YLVAKLVEV; listed as Homo sapiens) [compound 18] | “++” (≥20% = ++) |
| 19 (FMVDNEAIYDI; listed as Homo sapiens) [compound 19] | “++++” (≥75% = ++++) |
| 20 (RMIEYFIDV; listed as Homo sapiens) [compound 20] | “+++” (≥50 = +++) |
| 23 (VLLDDIFAQL; listed as Homo sapiens) [compound 23] | “+++” (≥50 = +++) |
| 26 (ALLELAEEL; listed as Homo sapiens) [compound 26] | “+++” (≥50 = +++) |
| 28 (QLLDETSAITL; listed as Homo sapiens) [compound 28] | “+++” (≥50 = +++) |
| 29 (KMLGIPISNILMV; listed as Homo sapiens) [compound 29] | “+++” (≥50 = +++) |
| 31 (YLAPELFVNV; listed as Homo sapiens) [compound 31] | “++” (≥20% = ++) |
| 32 (KLDDLTQDLTV; listed as Homo sapiens) [compound 32] | “++” (≥20% = ++) |
| 33 (VLLSLLEKV; listed as Homo sapiens) [compound 33] | “++” (≥20% = ++) |
| 35 (KINDTIYEV; listed as Homo sapiens) [compound 35] | “+++” (≥50 = +++) |
| 36 (YVLEDLEVTV; listed as Homo sapiens) [compound 36] | “++” (≥20% = ++) |
| 44 (ILDPISSGFLL; listed as Homo sapiens) [compound 44] | “++” (≥20% = ++) |
| 48 (ALAELYEDEV; listed as Homo sapiens) [compound 48] | “+++” (≥50 = +++) |
| 49 (YLPAVFEEV; listed as Homo sapiens) [compound 49] | “+++” (≥50 = +++) |
| 50 (SLSELEALM; listed as Homo sapiens) [compound 50] | “+++” (≥50 = +++) |
| 54 (SLLEQGKEPWMV; listed as Homo sapiens) [compound 54] | “+++” (≥50 = +++) |
| 55 (SLLDLETLSL; listed as Homo sapiens) [compound 55] | “++++” (≥75% = ++++) |
| 59 (IMEDIILTL; listed as Homo sapiens) [compound 59] | “+++” (≥50 = +++) |
| 63 (YLLPSGGSVTL; listed as Homo sapiens) [compound 63] | “++” (≥20% = ++) |

Further lines, results first:

| Peptide exchange (MHC class I binding score, peptide exchange yield) | Substance |
| --- | --- |
| “+++” (≥50 = +++) | 2 (SLLEADPFL; listed as Homo sapiens) [compound 2] |
| “+++” (≥50 = +++) | 5 (HLTEVYPEL; listed as Homo sapiens) [compound 5] |
| “+++” (≥50 = +++) | 6 (VLVSDGVHSV; listed as Homo sapiens) [compound 6] |
| “++++” (≥75% = ++++) | 7 (SLVGLLLYL; listed as Homo sapiens) [compound 7] |
| “++++” (≥75% = ++++) | 10 (FLATFPLAAV; listed as Homo sapiens) [compound 10] |
| “+++” (≥50 = +++) | 11 (KIFEMLEGV; listed as Homo sapiens) [compound 11] |
| “+++” (≥50 = +++) | 13 (YLMDESLNL; listed as Homo sapiens) [compound 13] |
| “+++” (≥50 = +++) | 17 (GLLPGDRLVSV; listed as Homo sapiens) [compound 17] |
| “++” (≥20% = ++) | 21 (VLDELDMEL; listed as Homo sapiens) [compound 21] |
| “+++” (≥50 = +++) | 22 (IMEENPGIFAV; listed as Homo sapiens) [compound 22] |
| “++” (≥20% = ++) | 24 (SLSDGLEEV; listed as Homo sapiens) [compound 24] |
| “+++” (≥50 = +++) | 25 (FLPDEPYIKV; listed as Homo sapiens) [compound 25] |
| “+++” (≥50 = +++) | 27 (ILADIVISA; listed as Homo sapiens) [compound 27] |
| “+++” (≥50 = +++) | 30 (LILDWVPYI; listed as Homo sapiens) [compound 30] |
| “+++” (≥50 = +++) | 34 (ILVEADSLWVV; listed as Homo sapiens) [compound 34] |
| “+++” (≥50 = +++) | 38 (FLLEDDIHVS; listed as Homo sapiens) [compound 38] |
| “+++” (≥50 = +++) | 39 (SVAPNLPAV; listed as Homo sapiens) [compound 39] |

| Peptide exchange (MHC class I binding score, peptide exchange yield) | Substance |
| --- | --- |
| “+++” (≥50 = +++) | 40 (TLLVKVFSV; listed as Homo sapiens) [compound 40] |
| “+++” (≥50 = +++) | 41 (SLMPHIPGL; listed as Homo sapiens) [compound 41] |
| “+++” (≥50 = +++) | 42 (VLLQKIVSA; listed as Homo sapiens) [compound 42] |
| “++” (≥20% = ++) | 43 (VLSSLEINI; listed as Homo sapiens) [compound 43] |
| “+++” (≥50 = +++) | 45 (SLWQDIPDV; listed as Homo sapiens) [compound 45] |
| “+++” (≥50 = +++) | 46 (ILTEENIHL; listed as Homo sapiens) [compound 46] |
| “++” (≥20% = ++) | 47 (ILLSVPLLVV; listed as Homo sapiens) [compound 47] |
| “++++” (≥75% = ++++) | 51 (LLPDLEFYV; listed as Homo sapiens) [compound 51] |
| “++++” (≥75% = ++++) | 52 (FLLAHGLGFLL; listed as Homo sapiens) [compound 52] |
| “++++” (≥75% = ++++) | 53 (KMIETDILQKV; listed as Homo sapiens) [compound 53] |
| “++++” (≥75% = ++++) | 56 (KLYEGIPVLL; listed as Homo sapiens) [compound 56] |
| “+++” (≥50 = +++) | 57 (TLAELQPPVQL; listed as Homo sapiens) [compound 57] |
| “++++” (≥75% = ++++) | 60 (SLTIDGIYYV; listed as Homo sapiens) [compound 60] |
| “++++” (≥75% = ++++) | 61 (FLQGYQLHL; listed as Homo sapiens) [compound 61] |
| “++++” (≥75% = ++++) | 62 (VLLDVSAGQLLM; listed as Homo sapiens) [compound 62] |
| “++” (≥20% = ++) | 64 (YAAPGGLIGV; listed as Homo sapiens) [compound 64] |
